Experimental data reported in US20250145729A1 (DENALI THERAPEUTICS, published 2025).

T1: human CD98hc (human, UniProt P08195 109-529)
T1 construct: also called huCD98hc; CD98 heavy chain
T1 sequence: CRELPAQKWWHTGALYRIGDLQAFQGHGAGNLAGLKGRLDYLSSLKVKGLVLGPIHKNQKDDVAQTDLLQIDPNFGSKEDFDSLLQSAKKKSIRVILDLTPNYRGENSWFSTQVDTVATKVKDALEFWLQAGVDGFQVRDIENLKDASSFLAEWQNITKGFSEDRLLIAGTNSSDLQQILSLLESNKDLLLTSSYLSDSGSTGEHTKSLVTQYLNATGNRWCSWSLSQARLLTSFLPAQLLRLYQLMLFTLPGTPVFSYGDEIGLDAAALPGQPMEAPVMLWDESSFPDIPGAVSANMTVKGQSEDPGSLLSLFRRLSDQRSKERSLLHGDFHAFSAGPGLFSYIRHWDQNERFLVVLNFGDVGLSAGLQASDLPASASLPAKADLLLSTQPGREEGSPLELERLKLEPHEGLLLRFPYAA


Key:
human CD98hc = molecular target: T1, human CD98hc; test: SPR (Biacore)
Method in brief: (§1)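 The values are Kd for CD98hc binding by engineered Fc polypeptides, determined by surface plasmon resonance on a Biacore instrument. Clones were tested as Fc-Fab fusions carrying anti-BACE1 Fabs, in bivalent form or in a monovalent knob/hole form with the CD98hc-binding site only on the knob chain.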

cyno CD98hc = molecular target: T2, cyno CD98hc (cynomolgus monkey); test: SPR (Biacore)
T2 construct: also called cynomolgus CD98hc; cyCD98hc
Method in brief: as §1

Row | Binder | Kd (human CD98hc) | Kd (cyno CD98hc) | binding result (human CD98hc)
1 | LLB2-1 (Fc fusion, Fc part only) APELLGGPSVFLFPPKPKDTLMISRTPEVTCVVVDVSHEDPEVKFNWYVDGVEVHNAKTKPREEQYNSTYRVVSVLTVLHQDWLNGKEYKCKVSNKALPAPIEKTISKAKGQPREPQVYTLPPSRDELTKNQVSLTCLVKGFYPSDIAVLWNSRFSLENNYKTTPPVLDSDGSFFLYSKLTVDKSRWQQGNIFACNVLHEALHNHYTFKNLSLSPGK | 950 nM | 4300 nM | –
2 | LLB2-10-5 (Fc fusion, Fc part only) APELLGGPSVFLFPPKPKDTLMISRTPEVTCVVVDVSHEDPEVKFNWYVDGVEVHNAKTKPREEQYNSTYRVVSVLTVLHQDWLNGKEYKCKVSNKALPAPIEKTISKAKGQPREPQVYTLPPSRDELTKNQVSLTCLVKGFYPSDIAVLWNSRFVLENNYKTTPPVLDSDGSFFLYSKLTVDKSRWQQGEIFACNVLHEALHNHYTFKNLALSPGK | 390 nM | 2200 nM | –
3 | LLB2-10-7 (Fc fusion, Fc part only) APELLGGPSVFLFPPKPKDTLMISRTPEVTCVVVDVSHEDPEVKFNWYVDGVEVHNAKTKPREEQYNSTYRVVSVLTVLHQDWLNGKEYKCKVSNKALPAPIEKTISKAKGQPREPQVYTLPPSRDELTKNQVSLTCLVKGFYPSDIAVLWNSRFVLENNYKTTPPVLDSDGSFFLYSKLTVDKSRWQQGNIFACNVLHEALHSHYTFKNLALSPGK | 1100 nM | 6200 nM | –
4 | LLB2-29 (Fc fusion, Fc part only) APELLGGPSVFLFPPKPKDTLMISRTPEVTCVVVDVSHEDPEVKFNWYVDGVEVHNAKTKPREEQYNSTYRVVSVLTVLHQDWLNGKEYKCKVSNKALPAPIEKTISKAKGQPREPQVYTLPPSRDELTKNQVSLTCLVKGFYPSDIAVLWYDLFVLENNYKTTPPVLDSDGSFFLYSKLTVDKSRWQQGNIFACNVLHEALHNHYTFKEPFLSPGK | – | – | no binding
5 | LLS2.33.3 (Fc fusion, Fc part only; also called LLB2.33.3) APELLGGPSVFLFPPKPKDTLMISRTPEVTCVVVDVSHEDPEVKFNWYVDGVEVHNAKTKPREEQYNSTYRVVSVLTVLHQDWLNGKEYKCKVSNKALPAPIEKTISKAKGQPREPQVYTLPPSRDELTKNQVSLTCLVKGFYPSDIAVEWSSQYELENNYKTTPPVLDSDGSFFLYSKLTVDKSRWQQGNMFACNVWHEALHNHYTFKNLSLSPGK | 5400 nM | – | –
6 | LLB2-10-8 (Fc fusion, Fc part only) APELLGGPSVFLFPPKPKDTLMISRTPEVTCVVVDVSHEDPEVKFNWYVDGVEVHNAKTKPREEQYNSTYRVVSVLTVLHQDWLNGKEYKCKVSNKALPAPIEKTISKAKGQPREPQVYTLPPSRDELTKNQVSLTCLVKGFYPSDIAVLWNSRFVLENNYKTTPPVLDSDGSFFLYSKLTVDKSRWQQGEIFACNVYHEALHNHYTFKNLALSPGK | 170 nM | 890 nM | –
7 | LLB2-19 (Fc fusion, Fc part only) APELLGGPSVFLFPPKPKDTLMISRTPEVTCVVVDVSHEDPEVKFNWYVDGVEVHNAKTKPREEQYNSTYRVVSVLTVLHQDWLNGKEYKCKVSNKALPAPIEKTISKAKGQPREPQVYTLPPSRDELTKNQVSLTCLVKGFYPSDIVVLWNSRFSLEANVKTTPPVLDSDGSFFLYSKLTVDKSRWQQGQIFACNVLHEALHNHVTFKNLVLSPGK | 9200 nM | – | –
8 | LLB2-27 (Fc fusion, Fc part only) APELLGGPSVFLFPPKPKDTLMISRTPEVTCVVVDVSHEDPEVKFNWYVDGVEVHNAKTKPREEQYNSTYRVVSVLTVLHQDWLNGKEYKCKVSNKALPAPIEKTISKAKGQPREPQVYTLPPSRDELTKNQVSLTCLVKGFYPSDIAVLWMNHFTLENNYKTTPPVLDSDGSFFLYSKLTVDKSRWQQGNIFACNVMHEALHNHYTFKPLPLSPGK | – | – | no binding
9 | LLB2-4 (Fc fusion, Fc part only) APELLGGPSVFLFPPKPKDTLMISRTPEVTCVVVDVSHEDPEVKFNWYVDGVEVHNAKTKPREEQYNSTYRVVSVLTVLHQDWLNGKEYKCKVSNKALPAPIEKTISKAKGQPREPQVYTLPPSRDELTKNQVSLTCLVKGFYPSDIAVLWSSRFSLENNYKTTPPVLDSDGSFFLYSKLTVDKSRWQQGNIFACNVLHEALHNHYTFKNLSLSPGK | 1700 nM | – | –
10 | LLB2-8 (Fc fusion, Fc part only) APELLGGPSVFLFPPKPKDTLMISRTPEVTCVVVDVSHEDPEVKFNWYVDGVEVHNAKTKPREEQYNSTYRVVSVLTVLHQDWLNGKEYKCKVSNKALPAPIEKTISKAKGQPREPQVYTLPPSRDELTKNQVSLTCLVKGFYPSDIAVLWNSRFELENNYKTTPPVLDSDGSFFLYSKLTVDKSRWQQGNIFACNVLHEALHNHYTFKNLSLSPGK | 790 nM | 3200 nM | –
11 | LLB2-32 (Fc fusion, Fc part only) APELLGGPSVFLFPPKPKDTLMISRTPEVTCVVVDVSHEDPEVKFNWYVDGVEVHNAKTKPREEQYNSTYRVVSVLTVLHQDWLNGKEYKCKVSNKALPAPIEKTISKAKGQPREPQVYTLPPSRDELTKNQVSLTCLVKGFYPSDIAVLWLDFFSLENNYKTTPPVLDSDGSFFLYSKLTVDKSRWQQGNIFACNVFHEALHNHYTFKVLALSPGK | – | – | no binding
12 | LLB2-5 (Fc fusion, Fc part only) APELLGGPSVFLFPPKPKDTLMISRTPEVTCVVVDVSHEDPEVKFNWYVDGVEVHNAKTKPREEQYNSTYRVVSVLTVLHQDWLNGKEYKCKVSNKALPAPIEKTISKAKGQPREPQVYTLPPSRDELTKNQVSLTCLVKGFYPSDIAVLWNSKFSLENNYKTTPPVLDSDGSFFLYSKLTVDKSRWQQGNIFACNVLHEALHNHYTFKNLSLSPGK | 1900 nM | – | –
13 | LLB2-34 (Fc fusion, Fc part only) APELLGGPSVFLFPPKPKDTLMISRTPEVTCVVVDVSHEDPEVKFNWYVDGVEVHNAKTKPREEQYNSTYRVVSVLTVLHQDWLNGKEYKCKVSNKALPAPIEKTISKAKGQPREPQVYTLPPSRDELTKNQVSLTCLVKGFYPSDIAVLWTQFFALENNYKTTPPVLDSDGSFFLYSKLTVDKSRWQQGNIFACNVIHEALHNHYTFKVPQLSPGK | – | – | no binding
14 | LLB2-9 (Fc fusion, Fc part only) APELLGGPSVFLFPPKPKDTLMISRTPEVTCVVVDVSHEDPEVKFNWYVDGVEVHNAKTKPREEQYNSTYRVVSVLTVLHQDWLNGKEYKCKVSNKALPAPIEKTISKAKGQPREPQVYTLPPSRDELTKNQVSLTCLVKGFYPSDIAVLWNSRFQLENNYKTTPPVLDSDGSFFLYSKLTVDKSRWQQGNIFACNVLHEALHNHYTFKNLSLSPGK | 750 nM | 3300 nM | –
15 | LLB2-10-8-d1 BV (Fc fusion, Fc part only; BV = bivalent) APELLGGPSVFLFPPKPKDTLMISRTPEVTCVVVDVSHEDPEVKFNWYVDGVEVHNAKTKPREEQYNSTYRVVSVLTVLHQDWLNGKEYKCKVSNKALPAPIEKTISKAKGQPREPQVYTLPPSRDELTKNQVSLTCLVKGFYPSDIAVLWNSRFVLENNYKTTPPVLDSDGSFFLYSKLTVDKSRWQQGEIFACNVYHEALHNHYTFKNLSLSPGK | 280 nM | 1500 nM | –
16 | LLB2-7 (Fc fusion, Fc part only) APELLGGPSVFLFPPKPKDTLMISRTPEVTCVVVDVSHEDPEVKFNWYVDGVEVHNAKTKPREEQYNSTYRVVSVLTVLHQDWLNGKEYKCKVSNKALPAPIEKTISKAKGQPREPQVYTLPPSRDELTKNQVSLTCLVKGFYPSDIAVLWNSRYSLENNYKTTPPVLDSDGSFFLYSKLTVDKSRWQQGNIFACNVLHEALHNHYTFKNLSLSPGK | 3600 nM | – | –
17 | LLB2-10 (Fc fusion, Fc part only) APELLGGPSVFLFPPKPKDTLMISRTPEVTCVVVDVSHEDPEVKFNWYVDGVEVHNAKTKPREEQYNSTYRVVSVLTVLHQDWLNGKEYKCKVSNKALPAPIEKTISKAKGQPREPQVYTLPPSRDELTKNQVSLTCLVKGFYPSDIAVLWNSRFVLENNYKTTPPVLDSDGSFFLYSKLTVDKSRWQQGNIFACNVLHEALHNHYTFKNLSLSPGK | 680 nM | 2700 nM | –
18 | LLB2-10-1 (Fc fusion, Fc part only) APELLGGPSVFLFPPKPKDTLMISRTPEVTCVVVDVSHEDPEVKFNWYVDGVEVHNAKTKPREEQYNSTYRVVSVLTVLHQDWLNGKEYKCKVSNKALPAPIEKTISKAKGQPREPQVYTLPPSRDELTKNQVSLTCLVKGFYPSDIAVLWNSRFVLENNYKTTPPVLDSDGSFFLYSKLTVDKSRWQQGNIFACNVLHEALHNHYTFKNLALSPGK | 795 nM | 4200 nM | –
19 | LLB2-10-4 (Fc fusion, Fc part only) APELLGGPSVFLFPPKPKDTLMISRTPEVTCVVVDVSHEDPEVKFNWYVDGVEVHNAKTKPREEQYNSTYRVVSVLTVLHQDWLNGKEYKCKVSNKALPAPIEKTISKAKGQPREPQVYTLPPSRDELTKNQVSLTCLVKGFYPSDIVVLWNSRFVLENNYKTTPPVLDSDGSFFLYSKLTVDKSRWQQGNIFACNVLHEALHNHYTFKNLALSPGK | 630 nM | 3000 nM | –
20 | LLB2-10-6 (Fc fusion, Fc part only) APELLGGPSVFLFPPKPKDTLMISRTPEVTCVVVDVSHEDPEVKFNWYVDGVEVHNAKTKPREEQYNSTYRVVSVLTVLHQDWLNGKEYKCKVSNKALPAPIEKTISKAKGQPREPQVYTLPPSRDELTKNQVSLTCLVKGFYPSDIAVLWNSRFVLENNYKTTPPVLDSDGSFFLYSKLTVDKSRWQQGNIFACNVYHEALHNHYTFKNLALSPGK | 460 nM | 2100 nM | –
